This note sets out measurements from patent US20050261472A1, “Binding moieties for fibrin” (Dyax Corp., priority 1999, published 2005).

Bridge positions count the residues as written; N and C are the ends. Ends that are not written are not given here.

Test [1] deals with T1, DD(E) (Homo sapiens, UniProt P02671+P02675+P02679).
T1 construct: host or cells: purchased fibrinogen clotted with thrombin, digested with plasmin, then purified by ammonium sulfate cuts and Sephacryl S200
The test can be described thus: dissociation constant against fibrin-derived polypeptide DD(E). As to conditions: read-out: Kd DD(E). It counts as binding.

Test [2] concerns the target T2, fibrinogen (Homo sapiens, UniProt P02671+P02675+P02679).
T2 sequence (P02671 20-644 isoform P02671-2 limits assumed): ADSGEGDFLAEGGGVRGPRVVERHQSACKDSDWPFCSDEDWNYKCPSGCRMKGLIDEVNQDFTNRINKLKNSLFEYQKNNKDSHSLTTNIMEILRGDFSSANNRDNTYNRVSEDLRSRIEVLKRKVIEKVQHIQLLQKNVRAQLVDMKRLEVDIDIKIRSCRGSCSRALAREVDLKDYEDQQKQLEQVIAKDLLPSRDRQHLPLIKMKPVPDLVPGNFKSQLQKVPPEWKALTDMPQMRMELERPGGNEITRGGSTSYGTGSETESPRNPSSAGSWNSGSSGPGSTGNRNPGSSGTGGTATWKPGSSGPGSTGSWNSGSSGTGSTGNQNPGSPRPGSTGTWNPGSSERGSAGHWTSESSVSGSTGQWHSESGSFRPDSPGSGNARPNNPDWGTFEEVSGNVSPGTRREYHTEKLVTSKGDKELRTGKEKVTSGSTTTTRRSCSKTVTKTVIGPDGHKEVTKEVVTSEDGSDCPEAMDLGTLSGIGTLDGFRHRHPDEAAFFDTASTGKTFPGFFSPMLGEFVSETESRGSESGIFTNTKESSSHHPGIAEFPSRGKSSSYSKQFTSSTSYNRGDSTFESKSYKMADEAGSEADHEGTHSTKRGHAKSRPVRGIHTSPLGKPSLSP
T2 sequence (P02675 31-491): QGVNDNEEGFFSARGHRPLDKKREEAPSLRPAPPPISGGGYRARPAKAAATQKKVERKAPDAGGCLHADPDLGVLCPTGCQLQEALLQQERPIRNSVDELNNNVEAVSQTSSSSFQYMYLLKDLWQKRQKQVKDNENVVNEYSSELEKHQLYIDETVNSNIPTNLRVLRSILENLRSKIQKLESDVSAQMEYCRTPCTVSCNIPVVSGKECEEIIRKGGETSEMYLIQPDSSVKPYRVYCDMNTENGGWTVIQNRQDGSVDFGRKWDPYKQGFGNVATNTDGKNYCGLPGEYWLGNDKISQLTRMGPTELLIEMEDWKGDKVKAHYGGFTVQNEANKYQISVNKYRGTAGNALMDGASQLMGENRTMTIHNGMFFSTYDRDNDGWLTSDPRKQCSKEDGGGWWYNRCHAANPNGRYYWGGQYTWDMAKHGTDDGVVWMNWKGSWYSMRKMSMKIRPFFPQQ
T2 sequence (P02679 27-437 isoform P02679-2 limits assumed): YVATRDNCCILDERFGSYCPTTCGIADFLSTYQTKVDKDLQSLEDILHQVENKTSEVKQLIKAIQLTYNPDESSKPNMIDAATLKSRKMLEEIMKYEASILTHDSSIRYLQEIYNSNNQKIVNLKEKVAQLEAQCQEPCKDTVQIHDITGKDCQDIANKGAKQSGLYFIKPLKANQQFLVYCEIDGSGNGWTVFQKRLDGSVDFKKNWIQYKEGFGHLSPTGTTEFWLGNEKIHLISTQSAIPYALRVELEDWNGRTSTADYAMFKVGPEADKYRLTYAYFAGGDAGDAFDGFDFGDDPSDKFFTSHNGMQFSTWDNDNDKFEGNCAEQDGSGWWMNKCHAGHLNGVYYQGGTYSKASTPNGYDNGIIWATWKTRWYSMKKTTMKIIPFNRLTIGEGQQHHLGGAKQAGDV
The test can be described thus: binding affinity by equilibrium dialysis. To be noted: 190 μM vs. 2.7 μM. Here is the method: (§1) A solution of fibrinogen (10 mg/ml) was mixed with the MR labeled peptide of Example 11 designated Gd-DTPA-Pep1, at concentrations of 10, 50 and 100 μM. The fibrinogen/peptide solution was placed on one side of a dialysis membrane in an equilibrium dialysis apparatus. The solution was allowed to equilibrate with an equal volume of buffer on the opposite side of the membrane.

Test [3] concerns the target T3, dried fibrin (UniProt P02671 36-629; P02675 45-491; P02679 27-437, limits assumed).
T3 construct: Polymerised fibrin made in 96-well plates from fibrinogen and thrombin, dried at 37 C and rehydrated; also called (rehydrated) dried fibrin; fibrin target
T3 sequence (looked up) 1: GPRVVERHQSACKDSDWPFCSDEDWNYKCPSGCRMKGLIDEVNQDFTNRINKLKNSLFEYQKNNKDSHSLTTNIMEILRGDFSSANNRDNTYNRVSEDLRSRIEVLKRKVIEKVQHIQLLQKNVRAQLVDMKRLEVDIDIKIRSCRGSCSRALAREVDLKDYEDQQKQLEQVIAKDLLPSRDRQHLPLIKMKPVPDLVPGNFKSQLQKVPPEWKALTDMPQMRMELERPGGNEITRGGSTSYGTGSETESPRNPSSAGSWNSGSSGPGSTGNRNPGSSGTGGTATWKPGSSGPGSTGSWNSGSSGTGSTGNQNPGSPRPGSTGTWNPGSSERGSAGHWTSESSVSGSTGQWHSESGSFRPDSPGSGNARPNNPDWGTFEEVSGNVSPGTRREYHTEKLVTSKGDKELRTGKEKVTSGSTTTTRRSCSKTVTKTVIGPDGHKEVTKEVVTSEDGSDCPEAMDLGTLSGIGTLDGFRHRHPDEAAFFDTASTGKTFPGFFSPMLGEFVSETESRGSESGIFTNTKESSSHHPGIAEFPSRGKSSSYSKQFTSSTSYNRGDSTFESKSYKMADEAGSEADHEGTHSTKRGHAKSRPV
T3 sequence (looked up) 2: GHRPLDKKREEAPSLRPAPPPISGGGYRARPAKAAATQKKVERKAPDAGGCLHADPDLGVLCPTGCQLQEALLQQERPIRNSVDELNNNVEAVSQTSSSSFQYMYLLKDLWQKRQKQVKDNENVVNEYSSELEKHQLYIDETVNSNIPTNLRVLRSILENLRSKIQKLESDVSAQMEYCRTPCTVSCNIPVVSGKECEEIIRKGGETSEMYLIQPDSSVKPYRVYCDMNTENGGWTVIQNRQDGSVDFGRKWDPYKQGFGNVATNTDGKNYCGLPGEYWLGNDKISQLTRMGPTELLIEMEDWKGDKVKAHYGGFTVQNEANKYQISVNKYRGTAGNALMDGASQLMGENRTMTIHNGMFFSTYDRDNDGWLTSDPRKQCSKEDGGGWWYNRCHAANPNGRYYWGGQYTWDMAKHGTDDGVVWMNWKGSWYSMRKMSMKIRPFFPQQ
T3 sequence (looked up) 3: T2 sequence (P02679 27-437 isoform P02679-2 limits assumed)
The test is described as follows: dried fibrin plate, bound vs free peptide.

In test [4] the target is T4, fibrinogen (UniProt P02671 20-629; P02675 31-491; P02679 27-437, limits assumed).
T4 sequence (looked up) 1: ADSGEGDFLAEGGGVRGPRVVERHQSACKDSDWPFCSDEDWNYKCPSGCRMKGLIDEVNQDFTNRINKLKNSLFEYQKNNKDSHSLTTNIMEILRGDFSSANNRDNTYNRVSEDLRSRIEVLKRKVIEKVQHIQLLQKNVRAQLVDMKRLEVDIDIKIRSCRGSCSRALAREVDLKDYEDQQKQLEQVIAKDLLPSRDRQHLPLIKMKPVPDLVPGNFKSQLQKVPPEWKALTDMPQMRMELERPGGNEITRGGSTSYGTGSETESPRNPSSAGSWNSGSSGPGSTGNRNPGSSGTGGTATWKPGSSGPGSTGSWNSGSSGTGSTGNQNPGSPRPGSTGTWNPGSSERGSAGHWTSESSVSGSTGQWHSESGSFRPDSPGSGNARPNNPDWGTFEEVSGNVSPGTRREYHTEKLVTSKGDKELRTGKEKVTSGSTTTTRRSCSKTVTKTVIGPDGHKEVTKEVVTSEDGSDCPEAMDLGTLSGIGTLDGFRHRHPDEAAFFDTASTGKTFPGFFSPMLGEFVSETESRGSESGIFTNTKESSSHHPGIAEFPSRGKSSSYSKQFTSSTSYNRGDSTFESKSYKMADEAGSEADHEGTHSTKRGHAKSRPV
T4 sequence (looked up) 2: T2 sequence (P02675 31-491)
T4 sequence (looked up) 3: T2 sequence (P02679 27-437 isoform P02679-2 limits assumed)
The test is described as follows: equilibrium dialysis, fibrinogen 10 mg/ml, peptide by I.C.P. Here is the method:
as §1

Test [5] deals with T3, dried fibrin. The test can be described thus: ratio of Kd for fibrinogen (equilibrium dialysis) to Kd for fibrin. Here is the method:
as §1

The target of test [6] is T5, fibrin of an in vitro clot formed from human blood plasma (human, UniProt P02671 36-629; P02675 45-491; P02679 27-437).
T5 construct: Plasma of a human donor clotted with CaCl2 in the presence of the peptide; also called in vitro blood clot
T5 sequence (looked up) 1: T3 sequence (looked up) 1
T5 sequence (looked up) 2: T3 sequence (looked up) 2
T5 sequence (looked up) 3: T2 sequence (P02679 27-437 isoform P02679-2 limits assumed)
The test is described as follows: human plasma clotted in the presence of peptide, free peptide by Gd I.C.P., bound vs free fit. Here is the method: Freshly drawn whole blood was obtained from a human donor and centrifuged at 4000×g for 15 minutes to remove the hematocrit. The blood plasma (supernatant) was removed and dispensed into ten 1.5 ml tubes, 500 μL/tube. The MR labeled peptide of Example 11, GdDTPA-Pep1, was added to each tube at increasing concentrations (2, 5, 8, 10, 15, 20, 30, 50, 75, 100 μM) along with PBS buffer (50 mM sodium phosphate, 150 mM NaCl, pH 7.4) to bring the total volume to 550 μL. The sample was equilibrated at 37° C. A small aliquot (50 μL) was removed for quantitating the total peptide added (measured by Gd I.C.P. analysis after dilution into 0.1 M HNO₃). Clotting was initiated by the addition of 5 μL 2 M CaCl₂, and the samples are incubated at 37° C. for 1 hour. The tubes were spun down briefly (5 sec) and the clot was removed with a pipet tip. The remaining supernatant (˜200 μL) was diluted in HNO₃ and the peptide concentration (equal to the concentration of unbound or free peptide) was measured by Gd I.C.P. analysis. The difference between the total and free peptide concentrations yields the concentration of bound peptide.

As to `CC(C)C[C@H](NC(=O)[C@@H]1CSSC[C@H](NC(=O)[C@@H]2CCCN2C(=O)[C@H](CC(C)C)NC(=O)C[C@@H](C(=O)O)N(CCN(CC(=O)O)CC(=O)O)CCN(CC(=O)O)CC(=O)O)C(=O)N[C@@H](CC(=O)O)C(=O)N[C@@H](Cc2ccc(O)cc2)C(=O)N[C@@H](Cc2ccc(O)cc2)C(=O)NCC(=O)N[C@@H]([C@@H](C)O)C(=O)N1)C(=O)N[C@@H](CC(=O)O)C(N)=O` [Gd-DTPA-Pep1], in test [1], the equilibrium dissociation constant (Kd) was determined as 2900 nM. Besides, in test [2], the “specificity for fibrin over fibrinogen” value is on record as “roughly 70 fold”.

B1: Gd-DTPA-Pep1 (peptide)
peptide: LPCDYYGTCLD
modifications: disulfide 3-9 (inferred); not fully specified (N-terminus); also: Gd(III)-DTPA chelate, from DTPA-Asp(beta-COOH)-OtBu
Take B1: the Kd in test [3] was 7.4 µM; in test [4] it was 190 µM; in test [6], approximately 20 µM. Besides, the “specificity for fibrin over fibrinogen (fold)” value in test [5] was approximately 70 fold.
